Data published in paper PMC9736779, “Properties and Potential Antiproliferative Activity of Thrombin-Binding Aptamer (TBA) Derivatives with One or Two Additional G-Tetrads”.

Biological target: nucleolin (NCL) (Homo sapiens, UniProt P19338 1-710)
Assay: SPR; 70 mM KCl; SPR (Biacore X-100, CM5): 10 mM HEPES, 70 mM KCl, pH 7.4, 25 C; analyte 5-500 uM; two-state reaction fit
Details: protein: commercial

Chain of nucleolin (NCL) (P19338 whole entry): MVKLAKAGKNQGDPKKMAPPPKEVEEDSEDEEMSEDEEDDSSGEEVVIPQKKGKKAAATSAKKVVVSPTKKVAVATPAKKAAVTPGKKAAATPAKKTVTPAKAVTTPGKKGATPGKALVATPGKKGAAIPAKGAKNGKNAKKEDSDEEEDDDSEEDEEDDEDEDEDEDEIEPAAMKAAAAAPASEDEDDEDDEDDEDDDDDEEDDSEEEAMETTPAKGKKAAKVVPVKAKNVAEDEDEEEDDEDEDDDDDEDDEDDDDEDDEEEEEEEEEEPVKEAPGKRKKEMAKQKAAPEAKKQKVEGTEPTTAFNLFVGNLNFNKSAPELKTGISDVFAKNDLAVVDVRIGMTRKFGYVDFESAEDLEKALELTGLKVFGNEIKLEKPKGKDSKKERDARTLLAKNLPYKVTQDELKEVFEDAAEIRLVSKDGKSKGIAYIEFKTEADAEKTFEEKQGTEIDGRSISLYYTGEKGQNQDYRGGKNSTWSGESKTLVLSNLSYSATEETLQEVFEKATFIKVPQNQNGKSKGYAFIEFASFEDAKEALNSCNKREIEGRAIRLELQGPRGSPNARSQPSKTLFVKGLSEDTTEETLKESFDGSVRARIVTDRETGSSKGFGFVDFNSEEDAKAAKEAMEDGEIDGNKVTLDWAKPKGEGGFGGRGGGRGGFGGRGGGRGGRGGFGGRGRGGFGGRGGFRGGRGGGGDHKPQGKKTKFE

GGGGTTGGGGTGTGGGGTTGGGG (structured_DNA) [TBAG4] was tested, and the Kd (antiparallel G4, two extra G-tetrads, intramolecular) was 13.5 µM.

In the case of GGTTGGTGTGGTTGG (structured_DNA) [TBA], the Kd (antiparallel G4, intramolecular) is reported as 62.5 µM.

In the case of GGGTTGGGTGTGGGTTGGG (structured_DNA) [TBAG3], the Kd (G4, one extra G-tetrad, intramolecular) is reported as 1290 µM.
